Source: patent US20140287471A1, “VARIANT CBH I POLYPEPTIDES WITH REDUCED PRODUCT INHIBITION” (BP CORPORATION NORTN AMERICA INC., priority 2011, published 2014)

Tests used:
[1] = 4-MUL assay, specific activity (Example 2); type: biochemical; conditions: primary screening; 10 μL enzyme; n=1
Description: (§1) CBH I activity on was measured using the 4-MUL assay using gluconolactone to inhibit any BG activity. The fluorogenic 4-MUL substrate (SIGMA) was prepared at 100 mM concentration in DMSO. Assays were run in black 96-well-flat-bottomed plates (Costar) and 4-MU fluorescence was read on a BioTek H4 plate reader (ex/em 365/450 nm). Assay plates were filled with buffer (final concentrations of 100 mM MES, pH 6, 25 mM gluconolactone, with or without cellobiose; cellobiose concentrations are listed with appropriate data sets), to which enzyme mixture was added (10-30 μl, 5 μg/mL final) and then assays were initiated by addition of 4-MUL (0.5 mM final concentration in 100 μl total volume). Enzyme mixtures were either CBH I variants from harvested supernatants or standards. Standards included: a negative control, consisting of harvested supernatant from the CBH I knock-out strain; a positive control, consisting of wild-type CBH I from harvested supernatants; and, a commercial CBH I standard (E-CBHI from Megazymes). Activity standards were run by serial dilution of commercial CBH I from 40 to 0.02 μg/mL and 4-MU (SIGMA, prepared at 20 mM in DMSO) (in dilution increments of 2-fold; all dilutions were made using harvested supernatant from the knock-out control). Kinetic rates were monitored over the first 15 mins following 4-MUL addition; initial rates were calculated based on data in the linear range. After 1 hr, a final endpoint read was taken, both before and after reaction quenching (100 μL of 200 mM Sodium Carbonate, pH 10.0). Activity was calculated for kinetic and endpoint reads; background resulting from the CBH I knock-out supernatant remained negligible. 4MU standard curves and HPLC quantification values were used to calculate specific activity.
The specific activity (SA) of the variant library was evaluated in a secondary 4-MUL assay. […] On average, a mutation at position 268 increases the specific activity by 2.5 fold over that of wild type. A mutation at 268 in combination with 411 is around 1.5-1.6 fold higher than wild-type, on average.

[2] = 4-MUL cellobiose tolerance/inhibition assay, dose-response IC50 (Example 2); type: biochemical; conditions: primary screening, n=1; for Tolerance at 1 mM CB (MUL Data): 1 mM cellobiose; for IC50: 10 μL enzyme, cellobiose range 0.0001-100 mM, read-out: IC50 (MUL Data)
Description: as §1
Tolerance/inhibition values represent activity ratios and/or percent activity remaining/percent activity decreased in the presence versus the absence of cellobiose. Tolerant variants show less inhibition in the presence of cellobiose as compared to wild type, where an activity ratio of 1 (with vs. without a given concentration of cellobiose) is equivalent to 0% inhibition by cellobiose, or 100% tolerance. The effect of cellobiose on CBH I variant performance was monitored by dose-response in the 4MUL assay. Dose-response curves were generated by assaying variant activity in the presence of 6-8 different cellobiose concentrations ranging up to 100 mM cellobiose. CBH I samples were diluted to 5 μg/mL final concentration or were used directly in the case of protein quantification levels below 5 μg/mL. Half maximal inhibitory concentration (IC50) values were determined by plotting 4MUL activity versus cellobiose concentration and fitting with a four parameter dose-response fitting algorithm, with zero activity (or 100% inhibition) constrained to background activity (as established by CBH I knockout values) and with automatic outlier elimination (on GraphPad Prism 5).
Harvested supernatants from active variant isolates were evaluated for cellobiose tolerance at 1 mM cellobiose in the 4-MUL activity assay. Table 8 lists the tolerance of variants at 1 mM. […] Additional cellobiose concentrations at 0.25, 5, 10, 50, and 100 mM were tested leading to full dose-response curves for which half maximal inhibitory concentration (IC50) values were generated (Table 8). The IC50 values support that the variant library has decreased product inhibition, or increased tolerance to cellobiose, when compared to the wild-type enzyme (WT IC50=0.03 mM; see first entry, Table 8).
In one example, the cellobiose tolerance of the library was explored in more detail by generating dose-response curves and determining half maximal inhibitory concentration (IC50) values, the point at which the enzyme is 50% inhibited.

B1: 268— Glu (protein, UniProt P62694 18-513, looked up, variant R268E)
Exoglucanase 1: QSACTLQSETHPPLTWQKCSSGGTCTQQTGSVVIDANWRWTHATNSSTNCYDGNTWSSTLCPDNETCAKNCCLDGAAYASTYGVTTSGNSLSIGFVTQSAQKNVGARLYLMASDTTYQEFTLLGNEFSFDVDVSQLPCGLNGALYFVSMDADGGVSKYPTNTAGAKYGTGYCDSQCPRDLKFINGQANVEGWEPSSNNANTGIGGHGSCCSEMDIWEANSISEALTPHPCTTVGQEICEGDGCGGTYSDNEYGGTCDPDGCDWNPYRLGNTSFYGPGSSFTLDTTKKLTVVTQFETSGAINRYYVQNGVTFQQPNAELGSYSGNELNDDYCTAEEAEFGGSSFSDKGGLTQFKKATSGGMVLVMSLWDDYYANMLWLDSTYPTNETSSTPGAVRGSCSTSSGVPAQVESQSPNAKVTFSNIKFGPIGSTGNPSGGNPPGGNRGTTTTRRPATTTGSSPGPTQSHYGQCGGIGYSGPTVCASGTTCQVLNPYYSQCL
For B1, the “SA (μmol 4 MU/min/mg) (MUL Data)” value [1] was 0.88 μmol 4 MU/min/mg, the “Tolerance at 1 mM CB (MUL Data)” value [2] was 52% and the IC50 [2] was 870 µM.

B2: 268— Asn (protein, UniProt P62694 18-513, looked up, variant R268N)
Exoglucanase 1: QSACTLQSETHPPLTWQKCSSGGTCTQQTGSVVIDANWRWTHATNSSTNCYDGNTWSSTLCPDNETCAKNCCLDGAAYASTYGVTTSGNSLSIGFVTQSAQKNVGARLYLMASDTTYQEFTLLGNEFSFDVDVSQLPCGLNGALYFVSMDADGGVSKYPTNTAGAKYGTGYCDSQCPRDLKFINGQANVEGWEPSSNNANTGIGGHGSCCSEMDIWEANSISEALTPHPCTTVGQEICEGDGCGGTYSDNNYGGTCDPDGCDWNPYRLGNTSFYGPGSSFTLDTTKKLTVVTQFETSGAINRYYVQNGVTFQQPNAELGSYSGNELNDDYCTAEEAEFGGSSFSDKGGLTQFKKATSGGMVLVMSLWDDYYANMLWLDSTYPTNETSSTPGAVRGSCSTSSGVPAQVESQSPNAKVTFSNIKFGPIGSTGNPSGGNPPGGNRGTTTTRRPATTTGSSPGPTQSHYGQCGGIGYSGPTVCASGTTCQVLNPYYSQCL
With B2 the “SA (μmol 4 MU/min/mg) (MUL Data)” value [1] was 13.97 μmol 4 MU/min/mg, the “Tolerance at 1 mM CB (MUL Data)” value [2] was 41% and the IC50 [2] was 670 µM.

B3: 268_+411A Ala (protein, UniProt P62694 18-513, looked up, variant R268A R411A)
Exoglucanase 1: QSACTLQSETHPPLTWQKCSSGGTCTQQTGSVVIDANWRWTHATNSSTNCYDGNTWSSTLCPDNETCAKNCCLDGAAYASTYGVTTSGNSLSIGFVTQSAQKNVGARLYLMASDTTYQEFTLLGNEFSFDVDVSQLPCGLNGALYFVSMDADGGVSKYPTNTAGAKYGTGYCDSQCPRDLKFINGQANVEGWEPSSNNANTGIGGHGSCCSEMDIWEANSISEALTPHPCTTVGQEICEGDGCGGTYSDNAYGGTCDPDGCDWNPYRLGNTSFYGPGSSFTLDTTKKLTVVTQFETSGAINRYYVQNGVTFQQPNAELGSYSGNELNDDYCTAEEAEFGGSSFSDKGGLTQFKKATSGGMVLVMSLWDDYYANMLWLDSTYPTNETSSTPGAVAGSCSTSSGVPAQVESQSPNAKVTFSNIKFGPIGSTGNPSGGNPPGGNRGTTTTRRPATTTGSSPGPTQSHYGQCGGIGYSGPTVCASGTTCQVLNPYYSQCL
In the case of B3, the “SA (μmol 4 MU/min/mg) (MUL Data)” value [1] is reported as 0.52 μmol 4 MU/min/mg, the “Tolerance at 1 mM CB (MUL Data)” value [2] is reported as 65% and the IC50 [2] is reported as 1330 µM.

B4: 268— Thr (protein, UniProt P62694 18-513, looked up, variant R268T)
Exoglucanase 1: QSACTLQSETHPPLTWQKCSSGGTCTQQTGSVVIDANWRWTHATNSSTNCYDGNTWSSTLCPDNETCAKNCCLDGAAYASTYGVTTSGNSLSIGFVTQSAQKNVGARLYLMASDTTYQEFTLLGNEFSFDVDVSQLPCGLNGALYFVSMDADGGVSKYPTNTAGAKYGTGYCDSQCPRDLKFINGQANVEGWEPSSNNANTGIGGHGSCCSEMDIWEANSISEALTPHPCTTVGQEICEGDGCGGTYSDNTYGGTCDPDGCDWNPYRLGNTSFYGPGSSFTLDTTKKLTVVTQFETSGAINRYYVQNGVTFQQPNAELGSYSGNELNDDYCTAEEAEFGGSSFSDKGGLTQFKKATSGGMVLVMSLWDDYYANMLWLDSTYPTNETSSTPGAVRGSCSTSSGVPAQVESQSPNAKVTFSNIKFGPIGSTGNPSGGNPPGGNRGTTTTRRPATTTGSSPGPTQSHYGQCGGIGYSGPTVCASGTTCQVLNPYYSQCL
For B4, the “SA (μmol 4 MU/min/mg) (MUL Data)” value [1] was 0.97 μmol 4 MU/min/mg, the “Tolerance at 1 mM CB (MUL Data)” value [2] was 42% and the IC50 [2] was 600 µM.

B5: 268— His (protein, UniProt P62694 18-513, looked up, variant R268H)
Exoglucanase 1: QSACTLQSETHPPLTWQKCSSGGTCTQQTGSVVIDANWRWTHATNSSTNCYDGNTWSSTLCPDNETCAKNCCLDGAAYASTYGVTTSGNSLSIGFVTQSAQKNVGARLYLMASDTTYQEFTLLGNEFSFDVDVSQLPCGLNGALYFVSMDADGGVSKYPTNTAGAKYGTGYCDSQCPRDLKFINGQANVEGWEPSSNNANTGIGGHGSCCSEMDIWEANSISEALTPHPCTTVGQEICEGDGCGGTYSDNHYGGTCDPDGCDWNPYRLGNTSFYGPGSSFTLDTTKKLTVVTQFETSGAINRYYVQNGVTFQQPNAELGSYSGNELNDDYCTAEEAEFGGSSFSDKGGLTQFKKATSGGMVLVMSLWDDYYANMLWLDSTYPTNETSSTPGAVRGSCSTSSGVPAQVESQSPNAKVTFSNIKFGPIGSTGNPSGGNPPGGNRGTTTTRRPATTTGSSPGPTQSHYGQCGGIGYSGPTVCASGTTCQVLNPYYSQCL
In the case of B5, the “SA (μmol 4 MU/min/mg) (MUL Data)” value [1] is reported as 1.21 μmol 4 MU/min/mg, the “Tolerance at 1 mM CB (MUL Data)” value [2] is reported as 20% and the IC50 [2] is reported as 250 µM.

B6: 268— Cys (protein, UniProt P62694 18-513, looked up, variant R268C)
Exoglucanase 1: QSACTLQSETHPPLTWQKCSSGGTCTQQTGSVVIDANWRWTHATNSSTNCYDGNTWSSTLCPDNETCAKNCCLDGAAYASTYGVTTSGNSLSIGFVTQSAQKNVGARLYLMASDTTYQEFTLLGNEFSFDVDVSQLPCGLNGALYFVSMDADGGVSKYPTNTAGAKYGTGYCDSQCPRDLKFINGQANVEGWEPSSNNANTGIGGHGSCCSEMDIWEANSISEALTPHPCTTVGQEICEGDGCGGTYSDNCYGGTCDPDGCDWNPYRLGNTSFYGPGSSFTLDTTKKLTVVTQFETSGAINRYYVQNGVTFQQPNAELGSYSGNELNDDYCTAEEAEFGGSSFSDKGGLTQFKKATSGGMVLVMSLWDDYYANMLWLDSTYPTNETSSTPGAVRGSCSTSSGVPAQVESQSPNAKVTFSNIKFGPIGSTGNPSGGNPPGGNRGTTTTRRPATTTGSSPGPTQSHYGQCGGIGYSGPTVCASGTTCQVLNPYYSQCL
For B6, the “SA (μmol 4 MU/min/mg) (MUL Data)” value [1] was 0.86 μmol 4 MU/min/mg, the “Tolerance at 1 mM CB (MUL Data)” value [2] was 35% and the IC50 [2] was 520 µM.

B7: 268— Ser (protein, UniProt P62694 18-513, looked up, variant R268S)
Exoglucanase 1: QSACTLQSETHPPLTWQKCSSGGTCTQQTGSVVIDANWRWTHATNSSTNCYDGNTWSSTLCPDNETCAKNCCLDGAAYASTYGVTTSGNSLSIGFVTQSAQKNVGARLYLMASDTTYQEFTLLGNEFSFDVDVSQLPCGLNGALYFVSMDADGGVSKYPTNTAGAKYGTGYCDSQCPRDLKFINGQANVEGWEPSSNNANTGIGGHGSCCSEMDIWEANSISEALTPHPCTTVGQEICEGDGCGGTYSDNSYGGTCDPDGCDWNPYRLGNTSFYGPGSSFTLDTTKKLTVVTQFETSGAINRYYVQNGVTFQQPNAELGSYSGNELNDDYCTAEEAEFGGSSFSDKGGLTQFKKATSGGMVLVMSLWDDYYANMLWLDSTYPTNETSSTPGAVRGSCSTSSGVPAQVESQSPNAKVTFSNIKFGPIGSTGNPSGGNPPGGNRGTTTTRRPATTTGSSPGPTQSHYGQCGGIGYSGPTVCASGTTCQVLNPYYSQCL
For B7, the “SA (μmol 4 MU/min/mg) (MUL Data)” value [1] was 1.00 μmol 4 MU/min/mg, the “Tolerance at 1 mM CB (MUL Data)” value [2] was 45% and the IC50 [2] was 740 µM.
